# Results from IntAct's records for PubMed 21074049.
# B1: ERAD-associated E3 ubiquitin-protein ligase HRD1 (Saccharomyces cerevisiae), Q08109 (parent)
# chain: MVPENRRKQLAIFVVVTYLLTFYCVYSATKTSVSFLQVTLKLNEGFNLMVLSIFILLNSTLLWQLLTKLLFGELRLIEHEHIFERLPFTIINTLFMSSLFHERYFFTVAFFGLLLLYLKVFHWILKDRLEALLQSINDSTTMKTLIFSRFSFNLVLLAVVDYQIITRCISSIYTNQKSDIESTSLYLIQVMEFTMLLIDLLNLFLQTCLNFWEFYRSQQSLSNENNHIVHGDPTDENTVESDQSQPVLNDDDDDDDDDRQFTGLEGKFMYEKAIDVFTRFLKTALHLSMLIPFRMPMMLLKDVVWDILALYQSGTSLWKIWRNNKQLDDTLVTVTVEQLQNSANDDNICIICMDELIHSPNQQTWKNKNKKPKRLPCGHILHLSCLKNWMERSQTCPICRLPVFDEKGNVVQTTFTSNSDITTQTTVTDSTGIATDQQGFANEVDLLPTRTTSPDIRIVPTQNIDTLAMRTRSTSTPSPTWYTFPLHKTGDNSVGSSRSAYEFLITNSDEKENGIPVKLTIENHEVNSLHGDGGEQIAKKIVIPDKFIQHI
# partner: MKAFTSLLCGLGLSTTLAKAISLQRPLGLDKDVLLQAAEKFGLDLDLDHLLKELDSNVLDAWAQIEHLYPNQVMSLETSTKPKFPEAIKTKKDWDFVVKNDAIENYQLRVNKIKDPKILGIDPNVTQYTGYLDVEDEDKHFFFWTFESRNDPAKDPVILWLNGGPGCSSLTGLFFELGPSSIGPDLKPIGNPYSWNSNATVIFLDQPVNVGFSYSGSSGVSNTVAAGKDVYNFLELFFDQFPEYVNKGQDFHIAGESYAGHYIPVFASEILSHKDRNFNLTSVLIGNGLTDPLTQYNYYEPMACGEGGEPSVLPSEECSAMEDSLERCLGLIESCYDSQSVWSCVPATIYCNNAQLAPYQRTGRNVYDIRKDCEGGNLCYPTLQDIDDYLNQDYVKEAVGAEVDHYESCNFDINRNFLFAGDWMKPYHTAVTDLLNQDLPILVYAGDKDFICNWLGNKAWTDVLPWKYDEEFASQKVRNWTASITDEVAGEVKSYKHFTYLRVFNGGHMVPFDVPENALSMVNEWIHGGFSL
# Variants of: B1
# Settings: with cbpy_yeast PRC1, P00729
row,effect of a mutation on the interaction,Variant
1,decreasing interaction,MVPENRRKQLAIFVVVTYLLTFYCVYSATKTSVSFLQVTLKLNEGFNLMVLSIFILLNSTLLWQLLTKLLFGELRLIEHEHIFERLPFTIINTLFMSSLFHERYFFTVAFFGLLLLYLKVFHWILKDRLEALLQSINDSTTMKTLIFSRFSFNLVLLAVVDYQIITRCISSIYTNQKSDIESTSLYLIQVMEFTMLLIDLLNLFLQTCLNFWEFYRSQQSLSNENNHIVHGDPTDENTVESDQSQPVLNDDDDDDDDDRQFTGLEGKFMYEKAIDVFTRFLKTALHLSMLIPFRMPMMLLKDVVWDILALYQSGTSLWKIWRNNKQLDDTLVTVTVEQLQNSANDDNICIICMDELIHSPNQQTWKNKNKKPKRLPCGHILHLSCLKNWMERSQTCPISRLPVFDEKGNVVQTTFTSNSDITTQTTVTDSTGIATDQQGFANEVDLLPTRTTSPDIRIVPTQNIDTLAMRTRSTSTPSPTWYTFPLHKTGDNSVGSSRSAYEFLITNSDEKENGIPVKLTIENHEVNSLHGDGGEQIAKKIVIPDKFIQHI [C399S]
